Results on 2 molecules are retold here after doi:10.1101/435982 (bioRxiv, 2018).

Data set [1] has as its target His-Halo-XcpS62-396 (not stated | P. aeruginosa) (UniProt Q00513). The data set is described as follows: negative-stain electron microscopy structure.
Data set [2] deals with the molecule itself. As to the kind of experiment: SEC-MALS.

What is called stoichiometry N is a count of units in the complex or per binding partner. In the case of “His-Halo-XcpS62-396 (from UniProt Q00513 62-396) (domain or fragment)”, the stoichiometry N in data set [1] stood at 2.

B1: Strep-mCherry-XcpS56-396 (domain or fragment, P. aeruginosa, UniProt Q00513 56-396, looked up)
chain: RLTFARGLSARDLALVTRQLATLVQAALPIEEALRAAAAQSTSQRIQSMLLAVRAKVLEGHSLAGSLREFPTAFPELYRATVAAGEHAGHLGPVLEQLADYTEQRQQSRQKIQLALLYPVILMVASLAIVGFLLGYVVPDVVRVFIDSGQTLPLLTRVLIGVSDWVKAWGALAFVAAIGGVIGFRYALRKDAFRERWHGFLLRVPLVGRLVRSTDTARFASTLAILTRSGVPLVEALAIAAEVIANRIIRNEVVKAAQKVREGASLTRSLEATGQFPPMMLHMIASGERSGELDQMLARTARNQENDLAAQIGLMVGLFEPFMLIFMGAVVLVIVLAILLP
Regarding B1, the “stoichiometry N” value in data set [2] came to 2.
